Test results as given in patent US20240166738A1 (priority 2021, published 2024).
Positions count from the first letter of the chain named.

B1: TM-5: anti-TMEM106B monoclonal antibody; CDR-H1-3 SEQ ID NO: 6, 39, 82; CDR-L1-3 SEQ ID NO: 124, 164, 188 (antibody, V domains shown)
VH: QVQLQQSGTELARPGASVKVSCKASGYIFTTYGITWVKQRGGQGLEWIGEIYPRSDNTYYNEKFKDKATLTADKSSSTAYMELRSLTSEDSAVYFCARSKGSGTGDYWGQGTTVTVSS
VL: DIQMTQSPASLSASVGETVTITCRASENIYIYLAWYQQKQGKTPQLLVYNGKMLAENVPSRFSGSGSGTQFSLKINSLQPEDFGSYYCQHHYGSPPAFGAGTKLELK
B2: TM-28: anti-TMEM106B monoclonal antibody; CDR-H1-3 SEQ ID NO: 8, 59, 102; CDR-L1-3 SEQ ID NO: 142, 166, 190 (antibody, V domains shown)
VH: EVQLQQSGPVLVKPGPSVKISCMASVFTFNDYYIHWVKQSHGKSLEWIGLVYPYNGGTNYNQNFKGKATLTVDTSSRTAYMELNSLTSEDSAVYYCARSYFSNPIGYWGQGTLVTVSE
VL: DIVMTQSPSSLSVSVGEKVTVSCKSSQSLLNSGNQKNYLAWYQQKPGQPPKLLIYGASTRESGVPDRFTGSGSGTDFTLTISSVQAEDLAVYYCQNDHSYPLTFGAGTKLELK
B3: TM-29: anti-TMEM106B monoclonal antibody; CDR-H1-3 SEQ ID NO: 20, 60, 103; CDR-L1-3 SEQ ID NO: 143, 168, 207 (antibody, V domains shown)
VH: QVQLRQSGAELVRPGASVKLSCKASGYTFTDYYINWVKQRPGQGLEWIARIYPGSGYTYYNEKFKGKATLTAEGSSNTAYMQLSSLTSEDSAVYFCANHYTNPFAYWGQGTLVTVSA
VL: DIVMTQAAFSNPVTLGTSASISCRSSKSLLHYNGITYLYWYLQKPGQSPQLLIYQMSNLASGVPDRFSSSGSGTDFTLRISRVEAEDVGVYYCAQNLELPYTFGGGTKLEIK
B4: TM-30: anti-TMEM106B monoclonal antibody; CDR-H1-3 SEQ ID NO: 21, 61, 104; CDR-L1-3 SEQ ID NO: 144, 160, 208 (antibody, V domains shown)
VH: QVQLQQSGPELVKPGASVKLSCKASDNTFTNYDVNWVRQRPGQGLEWIGWIYPRDGTTIYNEKFKGRATLTVDTSSSTAYMELHSLTSEDSAVFFCARTLPQAMDYWGQGTSVTVSS
VL: DVLMTQSPLSLPVSLGDQVSISCRSSQTIVHRNGNTYLEWYLQKPGQSPKLLIYKVSNRFSGVPDRFSGSGSGTDFTLKISRVEAEDLGVYYCFQGSHLPWTFGGGTKLEIK
B5: TM-63: anti-TMEM106B monoclonal antibody; VH SEQ ID NO: 469, VL SEQ ID NO: 505 (antibody, V domains shown)
VH: QVQLQQPGAELVKFGASVKLSCKASGYTFTSFWMHWVKQRPGQGLEWIGNIDPSDSETHYSQKFKDKATLTVDRSSNTAYIQLSSLTSEDSAVYYCARSSNWDNFDYWGQGTTVTVSS
VL: DIVMTQASPSVSVTPGESVSISCRSSQSLLHVNGNTYLYWFLQRPGRSPRLLIYRMSNLASGVPDRFSGSGSGTAFTLRISRVEAEDVGVYYCMQHLQYPFSFGSGTKLEMK
modifications: Variable Heavy Chain -- TM-63; Variable Light Chain -- TM-63
B6: TM-64: anti-TMEM106B monoclonal antibody; VH SEQ ID NO: 470, VL SEQ ID NO: 506 (antibody, V domains shown)
VH: QVQLQQPGAELVKPGASVKLSCKASGYTFTSYWMHWVKQRPGHGLEWIGNIDPSDSDTHYNQNFRGKATLTVDKFSTTAYMHLSSLTSEDSAVYYCARSRGGTYDYGEAMDYWGQGTSVTVSS
VL: B5 VL with S8A, S12P, Q27K, V32T, Y39F, R50Q, Q98E, S102T, M111I
modifications: Variable Heavy Chain -- TM-64; Variable Light Chain -- TM-64

What follows are molecules tested against GST-TMEM106B (truncated, comprising amino acids 122-210 of SEQ ID NO:1) (Homo sapiens, UniProt Q9NUM4) (assay: Pre-mix epitope binning of anti-TMEM106B antibodies (Carterra / Lake Pharma)). Details: competition for binding to truncated GST-TMEM106B (amino acids 122-210).
Sequence of GST-TMEM106B (truncated, comprising amino acids 122-210 of SEQ ID NO:1) (Q9NUM4 122-210): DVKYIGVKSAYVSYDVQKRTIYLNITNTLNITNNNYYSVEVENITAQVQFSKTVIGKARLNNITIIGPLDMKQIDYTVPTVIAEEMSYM
Format: binding
Set-up: key to epitope bin: Bin 1: competes for binding to the same or overlapping TMEM106B region as the TM1, TM17, TM22, TM26, TM79, and/or TM82 antibodies; Bin 2: competes for binding to the same or overlapping TMEM106B region as the TM3, TM9, TM10, TM11, TM12, TM13, TM18, TM19, TM21, TM24, TM25, TM32, TM35, TM37, TM42, TM45, TM48, TM54, TM59, TM60, TM61, and/or TM76 antibodies; Bin 3: competes for binding to the same or overlapping TMEM106B region as the TM7, TM15, TM83, and/or TM84 antibodies; Bin 4: competes for binding to the same or overlapping TMEM106B region as the TMS, TM28, TM29, TM30, TM63, TM64, TM72, TM78, TM80, TM86, and/or TM88 antibodies; Bin 5: does not bind to a truncated TMEM106B comprising amino acids 122-210 of SEQ ID NO:1

Molecule | epitope bin
B1 | Bin 4
B2 | Bin 4
B3 | Bin 4
B4 | Bin 4
B5 | Bin 4
B6 | Bin 4

Same assay, conditions: epitope bin number; pre-mix binning on truncated GST-TMEM106B

Molecule | Binding Community/Bin
B1 | 4
B2 | 4
B3 | 4
B4 | 4
B5 | 4
B6 | 4
